According to patent publication US20160009789A1 (US Dept. of Health and Human Services, published 2016):

Experiments:
full-length YU2 gp120 [1] = biological target: T1, full-length YU2 gp120 (HIV-1 strain YU2, UniProt P35961 32-498); experiment: SPR (Biacore)
T1 construct: domain: full-length gp120; also called wild-type gp120

full-length YU2 gp120 [2] = biological target: T1, full-length YU2 gp120; experiment: SPR (Biacore), 1:1 Langmuir fit

B1: VRC03 (antibody, V domains shown)
VH: QVQLVQSGAVIKTPGSSVKISCRASGYNFRDYSIHWVRLIPDKGFEWIGWIKPLWGAVSYARQLQGRVSMTRQLSQDPDDPDWGVAYMEFSGLTPADTAEYFCVRRGSCDYCGDFPWQYWGQGTVVVVSS
VL: EIVLTQSPGILSLSPGETATLFCKASQGGNAMTWYQKRRGQVPRLLIYDTSRRASGVPDRFVGSGSGTDFFLTINKLDREDFAVYYCQQFEFFGLGSELEVH
notes: also called mAb VRC03
Question: For B1, which “fold lower affinity than VRC01 and VRC02” value (full-length YU2 gp120 [1]) is on record?
Answer: Its value is roughly 10 fold.

Question: What about the Kd (full-length YU2 gp120 [2]) of the same binder?
Answer: Its Kd is 73.1 nM.
